Source: patent publication US10442866 (BEIJING MABWORKS BIOTECH, dated 2019)
Numbering of substitutions follows the chain as printed. Read-outs that look alike come from different tables or passages of the source. Each block holds one binder with its values, some of them ahead of it.

Experiments:
[1] = biological target: T1, murine OX40-His (Crown, Cat#: E3350-B1707) (mouse, UniProt P47741 20-211); test: ELISA on coated mouse OX40-His, OD450
T1 construct: bought protein; also called mouse OX40-his; muOX40-his; not shown: His tag
T1 sequence: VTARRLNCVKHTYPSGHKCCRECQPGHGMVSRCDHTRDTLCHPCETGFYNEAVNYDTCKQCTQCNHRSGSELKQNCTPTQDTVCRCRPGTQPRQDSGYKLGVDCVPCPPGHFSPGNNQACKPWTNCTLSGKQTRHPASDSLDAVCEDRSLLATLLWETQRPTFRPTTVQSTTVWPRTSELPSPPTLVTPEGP

[2] = biological target: T2, recombinant rhesus OX40-his (Sino Biological, Cat#:90846-C08H) (rhesus monkey, UniProt P43489 29-214 (human entry)); test: ELISA on coated rhesus OX40-His, OD450
T2 construct: bought protein; also called monkey OX40-his; rhOX40-his; not shown: His tag
T2 chain: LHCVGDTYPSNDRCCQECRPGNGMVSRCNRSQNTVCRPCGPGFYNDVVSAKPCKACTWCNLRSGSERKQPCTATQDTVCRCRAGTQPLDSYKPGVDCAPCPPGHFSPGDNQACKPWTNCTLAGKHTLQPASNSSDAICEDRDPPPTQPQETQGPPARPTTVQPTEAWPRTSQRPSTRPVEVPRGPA

[3] = biological target: truncant 1-mFc (containing CRD2/3/4); test: ELISA with recombinant mFc-tagged OX40 ECD proteins, OD450
truncant 1-mFc (containing CRD2/3/4), sequence (chain, as listed by the source limits assumed): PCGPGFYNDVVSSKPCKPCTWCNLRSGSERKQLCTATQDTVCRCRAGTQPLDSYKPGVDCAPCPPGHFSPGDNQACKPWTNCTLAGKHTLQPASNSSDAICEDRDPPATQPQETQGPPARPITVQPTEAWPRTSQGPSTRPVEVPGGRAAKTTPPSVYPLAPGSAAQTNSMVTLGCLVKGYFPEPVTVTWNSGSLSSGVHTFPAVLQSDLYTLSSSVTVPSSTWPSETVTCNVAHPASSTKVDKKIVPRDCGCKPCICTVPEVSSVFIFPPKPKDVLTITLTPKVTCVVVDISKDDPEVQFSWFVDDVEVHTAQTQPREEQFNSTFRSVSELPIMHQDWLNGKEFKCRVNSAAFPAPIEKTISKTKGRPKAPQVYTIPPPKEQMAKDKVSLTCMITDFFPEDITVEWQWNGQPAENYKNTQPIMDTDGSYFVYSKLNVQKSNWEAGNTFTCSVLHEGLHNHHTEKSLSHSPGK
Excerpt: (§1) There are four individual cysteine enriched domains (CRD) in OX40 extracellular domain (ECD), namely CRD1, CRD2, CRD3 and CRD4, respectively. Based on the structure of OX40, four recombinant OX40 proteins were generated, i.e., the full-length OX40 ECD (containing CRD1/2/3/4) (SEQ ID NO.: 38), truncant 1-mFc (containing CRD2/3/4) (SEQ ID NO.: 39), truncant 2-mFc (containing CRD/3/4) (SEQ ID NO.: 40) and truncant 3-mFc (containing CRD/4) (SEQ ID NO.: 41). All the recombinant proteins were linked with a signal peptide (SEQ ID NO.: 42) at the N terminus for protein secretion and a mFc-tag (SEQ ID NO.: 43) at the C terminus for ELISA assay. DNA sequences were synthesized and subcloned into pcDNA3.1 vector. The expression and purification of the recombinant proteins were carried out according to the protocols in Example 10. ELISA assay was performed to assess binding capacity of mAbs to recombinant OX40 proteins, following the protocol in Example 2.

[4] = biological target: full length OX40 ECD-mFc (containing CRD1/2/3/4); test: as above
full length OX40 ECD-mFc (containing CRD1/2/3/4), sequence (chain, as listed by the source limits assumed): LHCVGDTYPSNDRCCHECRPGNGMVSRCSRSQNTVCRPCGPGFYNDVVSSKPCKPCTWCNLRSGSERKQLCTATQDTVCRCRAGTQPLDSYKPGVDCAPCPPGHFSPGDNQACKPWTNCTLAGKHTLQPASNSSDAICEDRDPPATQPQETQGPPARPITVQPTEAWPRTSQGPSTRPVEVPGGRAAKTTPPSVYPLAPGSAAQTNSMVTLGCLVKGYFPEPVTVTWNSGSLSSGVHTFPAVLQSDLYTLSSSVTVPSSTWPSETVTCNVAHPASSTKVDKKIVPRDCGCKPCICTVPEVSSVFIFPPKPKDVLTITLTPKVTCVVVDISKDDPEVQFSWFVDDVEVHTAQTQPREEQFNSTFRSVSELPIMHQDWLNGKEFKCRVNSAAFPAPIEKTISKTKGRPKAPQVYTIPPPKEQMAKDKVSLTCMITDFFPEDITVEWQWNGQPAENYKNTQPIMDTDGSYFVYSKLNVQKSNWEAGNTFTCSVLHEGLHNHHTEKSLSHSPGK
Excerpt: as §1

[5] = biological target: truncant 2-mFc (containing CRD/3/4); test: as above
truncant 2-mFc (containing CRD/3/4), sequence (chain, as listed by the source limits assumed): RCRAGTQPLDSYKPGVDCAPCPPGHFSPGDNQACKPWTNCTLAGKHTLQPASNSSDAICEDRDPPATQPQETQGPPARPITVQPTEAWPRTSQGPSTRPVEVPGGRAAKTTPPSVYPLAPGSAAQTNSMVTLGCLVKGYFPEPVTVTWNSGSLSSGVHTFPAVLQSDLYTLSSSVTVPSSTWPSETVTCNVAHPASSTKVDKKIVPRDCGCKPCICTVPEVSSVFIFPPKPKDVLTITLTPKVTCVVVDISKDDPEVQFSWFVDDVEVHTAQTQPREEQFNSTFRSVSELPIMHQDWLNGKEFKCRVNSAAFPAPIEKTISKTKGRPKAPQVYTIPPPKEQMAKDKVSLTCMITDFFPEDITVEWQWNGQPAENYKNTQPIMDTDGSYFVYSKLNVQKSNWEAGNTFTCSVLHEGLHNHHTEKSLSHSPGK
Excerpt: as §1

[6] = biological target: truncant 3-mFc (containing CRD/4); test: as above
truncant 3-mFc (containing CRD/4), sequence (chain, as listed by the source limits assumed): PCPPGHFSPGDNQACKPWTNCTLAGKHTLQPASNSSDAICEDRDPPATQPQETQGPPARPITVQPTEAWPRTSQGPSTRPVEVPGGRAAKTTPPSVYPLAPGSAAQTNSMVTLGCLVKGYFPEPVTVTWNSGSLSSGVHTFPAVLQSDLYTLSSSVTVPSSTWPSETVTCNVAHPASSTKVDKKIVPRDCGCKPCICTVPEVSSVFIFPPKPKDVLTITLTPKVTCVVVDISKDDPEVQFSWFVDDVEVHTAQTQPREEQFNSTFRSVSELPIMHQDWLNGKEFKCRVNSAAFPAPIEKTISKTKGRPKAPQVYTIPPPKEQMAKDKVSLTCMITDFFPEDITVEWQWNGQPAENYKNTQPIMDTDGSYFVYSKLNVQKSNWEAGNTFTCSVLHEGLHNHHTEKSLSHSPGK
Excerpt: as §1

[7] = biological target: T3, recombinant human OX40-his (Sino Biological, Cat#:10481-H03H) (human, UniProt P43489 29-214); test: ELISA on coated human OX40-his, OD450
T3 construct: bought protein; also called hOX40-his; not shown: His tag
T3 sequence: T2 chain with Q16H, N29S, A50S, A55P, P70L, P145A, T159I, R173G, R183G, P185R

[8] = biological target: T3, recombinant human OX40-his (Sino …); test: ELISA on coated human OX40-his, OD450; remark: listed apart in the source
[9] = biological target: T2, recombinant rhesus OX40-his (Sino …); test: ELISA on coated rhesus OX40-His, OD450
[10] = biological target: T1, murine OX40-His (Crown, Cat#: …); test: ELISA on coated mouse OX40-His, OD450; remark: listed apart in the source
[11] = biological target: T3, recombinant human OX40-his (Sino …); test: ELISA on coated human OX40-His, OD450

- binding result [1]: no binding (tested: 10000 ng/ml (log 4))
- binding result [2]: binds
- binding result [3]: binds
- binding result [4]: binds
- binding result [5]: binds
- binding result [6]: no binding
- EC50 (read off the curve) [7]: ~3 ng/mL
B1: 68C8-VH2VL3 (antibody, human IgG1, kappa, V domains shown)
VH: QVQLVQSGAEVKKPGASVKVSCKVSGDTFTSYWITWVRQRPGKGLEWMGDIHPGSGSTNNNEKFKNRVTMTVDTSTDTAYMELSSLRSEDTAVYYCATLRPYYFVYWGQGTLVTVSS
VL: DIQMTQSPSSLSASVGDRVTITCRASQDISNYLNWYQQKPGKTVKLLIYYTSRLLSGVPSRFSGSGSGTDYTLTISSLQPEDFATYFCQQGNTLPLTFGQGTRLEIKR
notes: humanized; also called 68C8-H2L3; 68C8H2L3

- EC50 (read off the curve) [8]: ~7 ng/mL
- EC50 (read off the curve) [9]: ~3 ng/mL
- binding result [3]: binds
- binding result [4]: binds
- binding result [5]: binds
- binding result [6]: no binding
- binding result [10]: no binding (tested: 10000 ng/ml (log 4))
- EC50 (read off the curve) [11]: ~3 ng/mL
B2: 71H8-VH2VL3 (antibody, human IgG1, kappa, V domains shown)
VH: B1 VH with D27Y, H52Y, N60Q, N66S
VL: B1 VL
notes: humanized; also called 71H8-H2L3; 71H8H2L3
